The supplement of paper PMC10065799, “High-throughput profiling of sequence recognition by tyrosine kinases and SH2 domains using bacterial peptide display” (eLife, 2023)

system: AncSZ; assay: phosphorylation enrichment, bacterial display (enrichment ratio); higher = better substrate or ligand; peptides without Tyr show the background
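Note: 11-residue human phosphosite peptides and single-mutation variants displayed on the E. coli surface, counted by deep sequencing, each peptide's frequency after selection divided by its frequency in the unselected input library; frequency after pTyr selection over input frequency; kinase dosed for 20-30% of maximal phosphorylation in three min.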

Row | Sequence | phosphorylation enrichment
1 | TRSYKCLLLSM [NF1_Y491_Y491C] | 0.979
2 | EARRVYGDIIY [ALDH5A1_Y175_H180Y] | 0.683
3 | GGQVFHNSEFG [FLT4_Y1333_Y1333H_YF] | 0.593
4 | EFNINYNNEPP [THG1L_Y228_L232P] | 1.23
5 | RVFIKYLPEWT [PSEN1_Y240_L235R] | 2.32
6 | IGRGSYAKVLL [PRKCZ_Y263] | 0.611
7 | DIRAQYDELAR [KRT18_Y256] | 1.02
8 | FSMGCYEFSLG [HMGCL_Y198_I200F_YF] | 2.26
9 | IDDLEYLHSQG [STK11_Y166_G163D] | 1.22
10 | RGEEPYTKKAL [TTC21B_Y160_K157E] | 0.715
11 | PIPAAYNRYDQ [CDC73_Y290] | 0.71
12 | IFETDYFQKGG [INSR_Y1189_R1191Q_YF] | 1.24
13 | RFLFFYSFLLK [PTEN_Y178_V175L_YF] | 2.12
14 | ETAENYLGHTA [HSPA9_Y181] | 0.858
15 | MYVKSYTIHYS [F5_Y2153] | 1.03
16 | LEGAKYVSHGA [ASS1_Y113_R108L] | 0.835
17 | AAVPAYDKIQV [STXBP2_Y401_R405Q] | 0.92

Row | Sequence | phosphorylation enrichment
18 | RVFRDYVLKSA [HTATIP2_Y111_D108Y_YF] | 0.889
19 | CTTIHSNFMCN [TP53_Y234_Y234S_YF] | 0.695
20 | PICEGYALPHA [ACTC1_Y171_Y168C] | 0.946
21 | KTKIGYSPLHQ [ANK1_Y735_L733I] | 0.489
22 | SSQTIYQRVEG [TFR2_Y23_V22I] | 0.756
23 | FSQQVYRVNLS [FAT4_Y480] | 0.658
24 | GFGGGYGGVLT [KRT19_Y65_A60G_YF] | 0.626
25 | RFLERYIYNRE [HLA-DPB1_Y57] | 0.77
26 | IVEFAYNDKAI [PUM3_Y259_YF] | 0.783
27 | IGSHAYGDQFR [IDH1_Y135_R132S_YF] | 0.527
28 | DPEGAYTTRGG [EPHA3_Y779_A777G] | 0.896
29 | ASTDFNKRGDF [PDHA1_Y243_Y243N_YF] | 0.511
30 | EGVPLYESATT [DCC_Y809] | 1.12
31 | DLRTGYSVPFG [TGM1_Y370_Y365D_YF] | 0.664
32 | ARLDEYIAIAK [RCOR3_Y46_K42R] | 0.649
33 | PANTVYSTVEI [SLAMF7_Y304] | 1.59

target: FGFR1 (UniProt P11362); assay: as above
Sequence (P11362 whole entry, looked up): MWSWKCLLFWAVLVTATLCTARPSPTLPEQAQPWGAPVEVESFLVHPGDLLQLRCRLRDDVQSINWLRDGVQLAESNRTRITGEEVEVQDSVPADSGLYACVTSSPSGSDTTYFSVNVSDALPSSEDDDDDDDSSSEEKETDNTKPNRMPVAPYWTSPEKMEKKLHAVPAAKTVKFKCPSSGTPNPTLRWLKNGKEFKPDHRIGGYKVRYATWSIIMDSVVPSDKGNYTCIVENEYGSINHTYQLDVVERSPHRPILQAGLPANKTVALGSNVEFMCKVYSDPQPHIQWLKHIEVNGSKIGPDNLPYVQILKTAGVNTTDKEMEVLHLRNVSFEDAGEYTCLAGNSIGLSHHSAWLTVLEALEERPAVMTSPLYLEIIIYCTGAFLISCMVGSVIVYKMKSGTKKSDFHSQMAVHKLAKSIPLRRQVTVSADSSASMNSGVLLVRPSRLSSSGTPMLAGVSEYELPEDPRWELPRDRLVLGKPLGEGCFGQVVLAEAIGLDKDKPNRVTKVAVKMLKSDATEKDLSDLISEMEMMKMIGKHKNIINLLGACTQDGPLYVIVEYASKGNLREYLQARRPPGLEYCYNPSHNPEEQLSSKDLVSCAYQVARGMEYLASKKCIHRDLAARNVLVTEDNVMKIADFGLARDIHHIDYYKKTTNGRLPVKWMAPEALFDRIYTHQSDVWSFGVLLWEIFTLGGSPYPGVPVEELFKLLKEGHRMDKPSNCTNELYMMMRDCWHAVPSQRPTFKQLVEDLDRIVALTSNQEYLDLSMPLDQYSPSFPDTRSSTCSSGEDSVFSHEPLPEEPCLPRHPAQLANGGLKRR

Row | Sequence | phosphorylation enrichment
34 | TRSYKCLLLSM [NF1_Y491_Y491C] | 0.375
35 | EARRVYGDIIY [ALDH5A1_Y175_H180Y] | 0.491
36 | GGQVFHNSEFG [FLT4_Y1333_Y1333H_YF] | 0.448
37 | EFNINYNNEPP [THG1L_Y228_L232P] | 0.681
38 | RVFIKYLPEWT [PSEN1_Y240_L235R] | 0.966
39 | IGRGSYAKVLL [PRKCZ_Y263] | 0.348
40 | DIRAQYDELAR [KRT18_Y256] | 0.576
41 | FSMGCYEFSLG [HMGCL_Y198_I200F_YF] | 0.733
42 | IDDLEYLHSQG [STK11_Y166_G163D] | 0.676
43 | RGEEPYTKKAL [TTC21B_Y160_K157E] | 0.771
44 | PIPAAYNRYDQ [CDC73_Y290] | 0.541
45 | IFETDYFQKGG [INSR_Y1189_R1191Q_YF] | 0.468
46 | RFLFFYSFLLK [PTEN_Y178_V175L_YF] | 0.885
47 | ETAENYLGHTA [HSPA9_Y181] | 0.486
48 | MYVKSYTIHYS [F5_Y2153] | 0.542
49 | LEGAKYVSHGA [ASS1_Y113_R108L] | 1
50 | AAVPAYDKIQV [STXBP2_Y401_R405Q] | 0.66

Row | Sequence | phosphorylation enrichment
51 | RVFRDYVLKSA [HTATIP2_Y111_D108Y_YF] | 0.79
52 | CTTIHSNFMCN [TP53_Y234_Y234S_YF] | 0.508
53 | PICEGYALPHA [ACTC1_Y171_Y168C] | 0.682
54 | KTKIGYSPLHQ [ANK1_Y735_L733I] | 0.422
55 | SSQTIYQRVEG [TFR2_Y23_V22I] | 0.562
56 | FSQQVYRVNLS [FAT4_Y480] | 0.49
57 | GFGGGYGGVLT [KRT19_Y65_A60G_YF] | 0.491
58 | RFLERYIYNRE [HLA-DPB1_Y57] | 0.495
59 | IVEFAYNDKAI [PUM3_Y259_YF] | 0.432
60 | IGSHAYGDQFR [IDH1_Y135_R132S_YF] | 0.518
61 | DPEGAYTTRGG [EPHA3_Y779_A777G] | 0.369
62 | ASTDFNKRGDF [PDHA1_Y243_Y243N_YF] | 0.373
63 | EGVPLYESATT [DCC_Y809] | 0.475
64 | DLRTGYSVPFG [TGM1_Y370_Y365D_YF] | 0.493
65 | ARLDEYIAIAK [RCOR3_Y46_K42R] | 0.446
66 | PANTVYSTVEI [SLAMF7_Y304] | 1.43

target: Fyn (UniProt P06241); assay: as above
Sequence (P06241 whole entry, looked up): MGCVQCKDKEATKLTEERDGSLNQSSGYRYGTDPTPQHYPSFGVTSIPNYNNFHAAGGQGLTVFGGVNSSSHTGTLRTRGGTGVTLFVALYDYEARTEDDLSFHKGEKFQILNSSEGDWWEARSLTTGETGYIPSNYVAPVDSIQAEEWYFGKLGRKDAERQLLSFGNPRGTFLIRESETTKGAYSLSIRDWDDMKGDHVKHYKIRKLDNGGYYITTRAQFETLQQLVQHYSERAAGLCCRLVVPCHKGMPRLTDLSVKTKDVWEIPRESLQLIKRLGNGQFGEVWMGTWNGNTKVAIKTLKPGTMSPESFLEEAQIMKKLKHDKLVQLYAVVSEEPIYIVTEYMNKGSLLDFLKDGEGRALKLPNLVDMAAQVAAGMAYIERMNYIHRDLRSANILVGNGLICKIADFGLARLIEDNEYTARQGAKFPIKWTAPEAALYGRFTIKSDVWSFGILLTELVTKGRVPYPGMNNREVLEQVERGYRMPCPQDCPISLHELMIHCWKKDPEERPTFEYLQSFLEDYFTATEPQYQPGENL

Row | Sequence | phosphorylation enrichment
67 | TRSYKCLLLSM [NF1_Y491_Y491C] | 0.425
68 | EARRVYGDIIY [ALDH5A1_Y175_H180Y] | 1.59
69 | GGQVFHNSEFG [FLT4_Y1333_Y1333H_YF] | 0.424
70 | EFNINYNNEPP [THG1L_Y228_L232P] | 0.626
71 | RVFIKYLPEWT [PSEN1_Y240_L235R] | 0.735
72 | IGRGSYAKVLL [PRKCZ_Y263] | 0.384
73 | DIRAQYDELAR [KRT18_Y256] | 0.58
74 | FSMGCYEFSLG [HMGCL_Y198_I200F_YF] | 0.881
75 | IDDLEYLHSQG [STK11_Y166_G163D] | 0.581
76 | RGEEPYTKKAL [TTC21B_Y160_K157E] | 0.481
77 | PIPAAYNRYDQ [CDC73_Y290] | 0.736
78 | IFETDYFQKGG [INSR_Y1189_R1191Q_YF] | 0.502
79 | RFLFFYSFLLK [PTEN_Y178_V175L_YF] | 0.79
80 | ETAENYLGHTA [HSPA9_Y181] | 0.442
81 | MYVKSYTIHYS [F5_Y2153] | 0.492
82 | LEGAKYVSHGA [ASS1_Y113_R108L] | 0.973
83 | AAVPAYDKIQV [STXBP2_Y401_R405Q] | 0.612

Row | Sequence | phosphorylation enrichment
84 | RVFRDYVLKSA [HTATIP2_Y111_D108Y_YF] | 0.572
85 | CTTIHSNFMCN [TP53_Y234_Y234S_YF] | 0.416
86 | PICEGYALPHA [ACTC1_Y171_Y168C] | 0.707
87 | KTKIGYSPLHQ [ANK1_Y735_L733I] | 0.408
88 | SSQTIYQRVEG [TFR2_Y23_V22I] | 0.771
89 | FSQQVYRVNLS [FAT4_Y480] | 1.01
90 | GFGGGYGGVLT [KRT19_Y65_A60G_YF] | 0.47
91 | RFLERYIYNRE [HLA-DPB1_Y57] | 0.842
92 | IVEFAYNDKAI [PUM3_Y259_YF] | 0.475
93 | IGSHAYGDQFR [IDH1_Y135_R132S_YF] | 0.464
94 | DPEGAYTTRGG [EPHA3_Y779_A777G] | 0.394
95 | ASTDFNKRGDF [PDHA1_Y243_Y243N_YF] | 0.365
96 | EGVPLYESATT [DCC_Y809] | 1.09
97 | DLRTGYSVPFG [TGM1_Y370_Y365D_YF] | 0.48
98 | ARLDEYIAIAK [RCOR3_Y46_K42R] | 0.391
99 | PANTVYSTVEI [SLAMF7_Y304] | 10.2

target: FGFR3 (UniProt P22607); assay: as above
Sequence (P22607 whole entry, looked up): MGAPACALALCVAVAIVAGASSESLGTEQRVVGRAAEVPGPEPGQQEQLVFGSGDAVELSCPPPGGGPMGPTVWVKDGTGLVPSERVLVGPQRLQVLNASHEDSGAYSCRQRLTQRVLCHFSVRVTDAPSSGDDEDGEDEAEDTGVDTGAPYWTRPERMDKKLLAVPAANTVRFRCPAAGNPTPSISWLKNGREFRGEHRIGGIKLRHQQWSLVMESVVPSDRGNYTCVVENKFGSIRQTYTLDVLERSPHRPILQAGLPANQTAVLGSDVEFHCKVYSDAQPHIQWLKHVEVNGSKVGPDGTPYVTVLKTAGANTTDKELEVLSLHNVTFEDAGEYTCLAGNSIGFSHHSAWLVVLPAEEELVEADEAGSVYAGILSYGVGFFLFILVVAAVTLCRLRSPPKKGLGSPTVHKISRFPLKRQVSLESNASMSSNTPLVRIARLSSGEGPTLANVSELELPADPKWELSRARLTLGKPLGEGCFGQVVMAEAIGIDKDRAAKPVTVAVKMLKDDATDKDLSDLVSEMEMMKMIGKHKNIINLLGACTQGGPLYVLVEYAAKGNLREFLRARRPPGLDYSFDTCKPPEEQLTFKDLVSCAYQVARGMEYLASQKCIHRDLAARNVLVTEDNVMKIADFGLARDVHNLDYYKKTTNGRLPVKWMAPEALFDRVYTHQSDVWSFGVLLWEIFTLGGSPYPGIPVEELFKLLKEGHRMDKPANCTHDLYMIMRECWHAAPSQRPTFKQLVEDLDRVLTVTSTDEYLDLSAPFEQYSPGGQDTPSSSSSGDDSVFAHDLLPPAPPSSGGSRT

Row | Sequence | phosphorylation enrichment
100 | TRSYKCLLLSM [NF1_Y491_Y491C] | 0.619
101 | EARRVYGDIIY [ALDH5A1_Y175_H180Y] | 0.579
102 | GGQVFHNSEFG [FLT4_Y1333_Y1333H_YF] | 0.572
103 | EFNINYNNEPP [THG1L_Y228_L232P] | 0.742
104 | RVFIKYLPEWT [PSEN1_Y240_L235R] | 1.32
105 | IGRGSYAKVLL [PRKCZ_Y263] | 0.394
106 | DIRAQYDELAR [KRT18_Y256] | 0.592
107 | FSMGCYEFSLG [HMGCL_Y198_I200F_YF] | 1.14
108 | IDDLEYLHSQG [STK11_Y166_G163D] | 0.737
109 | RGEEPYTKKAL [TTC21B_Y160_K157E] | 0.714
110 | PIPAAYNRYDQ [CDC73_Y290] | 0.621
111 | IFETDYFQKGG [INSR_Y1189_R1191Q_YF] | 0.876
112 | RFLFFYSFLLK [PTEN_Y178_V175L_YF] | 0.754
113 | ETAENYLGHTA [HSPA9_Y181] | 0.523
114 | MYVKSYTIHYS [F5_Y2153] | 0.815
115 | LEGAKYVSHGA [ASS1_Y113_R108L] | 1.17
116 | AAVPAYDKIQV [STXBP2_Y401_R405Q] | 0.666

Row | Sequence | phosphorylation enrichment
117 | RVFRDYVLKSA [HTATIP2_Y111_D108Y_YF] | 0.605
118 | CTTIHSNFMCN [TP53_Y234_Y234S_YF] | 0.55
119 | PICEGYALPHA [ACTC1_Y171_Y168C] | 0.598
120 | KTKIGYSPLHQ [ANK1_Y735_L733I] | 0.384
121 | SSQTIYQRVEG [TFR2_Y23_V22I] | 0.602
122 | FSQQVYRVNLS [FAT4_Y480] | 0.516
123 | GFGGGYGGVLT [KRT19_Y65_A60G_YF] | 0.522
124 | RFLERYIYNRE [HLA-DPB1_Y57] | 0.784
125 | IVEFAYNDKAI [PUM3_Y259_YF] | 0.525
126 | IGSHAYGDQFR [IDH1_Y135_R132S_YF] | 0.51
127 | DPEGAYTTRGG [EPHA3_Y779_A777G] | 0.534
128 | ASTDFNKRGDF [PDHA1_Y243_Y243N_YF] | 0.378
129 | EGVPLYESATT [DCC_Y809] | 0.775
130 | DLRTGYSVPFG [TGM1_Y370_Y365D_YF] | 0.644
131 | ARLDEYIAIAK [RCOR3_Y46_K42R] | 0.562
132 | PANTVYSTVEI [SLAMF7_Y304] | 1.29
